Laboratory results reported in patent US20220106391A1 (ZOETIS SERVICES, published 2022).

What was measured:
canine beta-NGF (cNGF) [1] = target: T1, canine beta-NGF (cNGF) (canine, UniProt Q29074 110-229 (pig entry)); assay: cell-based or functional assay
T1 chain: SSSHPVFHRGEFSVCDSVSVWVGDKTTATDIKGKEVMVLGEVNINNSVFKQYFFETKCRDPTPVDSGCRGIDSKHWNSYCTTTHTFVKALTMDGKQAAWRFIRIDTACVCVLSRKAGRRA

canine beta-NGF (cNGF) [2] = target: T1, canine beta-NGF (cNGF); assay: SPR (Biacore)
NGF (species not stated) = assay: cell-based or functional assay
feline NGF = target: T2, feline NGF (feline); assay: SPR, Biacore 3000, feline NGF
T2 chain: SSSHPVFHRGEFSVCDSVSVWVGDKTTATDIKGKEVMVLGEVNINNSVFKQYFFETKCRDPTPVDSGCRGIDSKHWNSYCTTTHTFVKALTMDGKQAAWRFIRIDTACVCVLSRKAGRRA
Protocol: Affinities of selected felinized anti-NGF antibody to feline NGF were measured using SPR (Surface Plasmon Resonance), Biacore 3000. Kinetics of association and dissociation of a felinized mAb with/from feline NGF were measured at different concentrations.

canine beta-NGF (cNGF) [3] = target: T1, canine beta-NGF (cNGF); assay: SPR (Biacore), cNGF binding; KD column of Table 7
canine beta-NGF (cNGF) [4] = target: T1, canine beta-NGF (cNGF); assay: SPR (Biacore), cNGF binding

Binder | IC50 [nM] (TrkA cell based assay) (canine beta-NGF (cNGF) [1]) | Kd (canine beta-NGF (cNGF) [2]) | further results
01B12 Chimera (antibody, V domains shown, Mouse variable domains on canine IgG constant regions; 184 and 160; also called Chim-01B12) VH: QVQLKESGPGLVAPSQSLSITCTVSGFSLTGYGVNWVRQPPGKGLEWLGMIWGDGSTDYNSALKSRLSISKDNSKSQVFLKMNSLQTDDTARYYCARDGYYYGTTWYFDVWGAGTTVTV VL: DIQMTQTTSSLSASLGDRVTISCRASQDISNYLNWYQQKPDGTIKLLIYYTSRLHSGVPSRFSGSGSGTDYSLTISNLEQEDIATYFCQQGSTLPRTFGGGT | 1.02 nM | 1.18 nM | 
H3AQC23L5A (antibody, V domains shown, Caninized IgG) VH: EVQLVESGGDLARPGGSLKLSCVVSGFTLTQYGINWVRQAPGKGLQWVTVIWATGATDYNSALKSRFTVSRDNAMNTVYLQMNSLRVEDTAVYYCARDGWWYATSWYFDVWGQGTLVTVSS VL: DIVMTQTPLSLSVSPGEPASISCKASQDINHYLNWFRQKPDGTVKLLIYYTSSLHSGVPSRFSGSGSGTDFTLRISRVEADDAGVYYCQQGDHFPRTFGQGT | 2.32 nM | 0.089 nM | 
H3A02B4VL1 (antibody, V domains shown, Caninized IgG) VH: EVQLVESGGDLARPGGSLKLSCVVSGFTLTQYGINWVRQAPGKGLQWVTVIWATGATDYNSALKSRFTVSRDNAMNTVYLQMNSLRVEDTAVYYCARDGWWYATSWYFDVWGQGTLVTVSS VL: EIVMTQSPASLSLSQEEKVTITCRASQDISNYLNWYQQKPGQAPKLLIYYTSRLHSGVPSRFSGSGSGTDFSFTISSLEPEDVAVYYCQQGNMFPYTFGGGT | 1.4 nM | 0.16 nM | 
H3AQC23L2AL3 (antibody, V domains shown) VH: EVQLVESGGDLARPGGSLKLSCVVSGFTLTQYGINWVRQAPGKGLQWVTVIWATGATDYNSALKSRFTVSRDNAMNTVYLQMNSLRVEDTAVYYCARDGWWYATSWYFDVWGQGTLVTVSS VL: DIVMTQTPLSLSVSPGEPASISCRASQSISNNLNWFRQKPDGTVKLLIYYISSFHSGVPSRFSGSGSGTDFTLRISRVEADDAGVYYCQQGDHFPYTFGQGT | 2.57 nM |  | 
mAb 1B (ZTS-082) (antibody, IgG1a, V domains shown, Felinized IgG with feline heavy and kappa constant regions; also called ZTS-082-1B; H1-23 / KPL) VH: DVQLVESGGDLVQPGGSLRLTCVASGFTLTQYGINWVRQAPGKGLQWVAVIWATGATDYNSALKSRFTISRDNAKNTLYLQMNSLKTEDTATYYCARDGWWYATSWYFDVWGQGALVTVSS VL: DIVMTQTPLSLSVTPGEPASISCKASQDINHYLNWYLQKPDGTVKLLIYYTSRLHSGVPSRFSGSGSGTDFTLRISRVEADDVGVYYCQQGDHFPRTFGPGT |  |  | IC50 (nM) (pERK-1/2, cell line expressing human TrkA) (NGF (species not stated)): 1.28 nM; Kd (feline NGF): 0.00941 nM
H3AQC23L2AL1 (antibody, V domains shown) VH: EVQLVESGGDLARPGGSLKLSCVVSGFTLTQYGINWVRQAPGKGLQWVTVIWATGATDYNSALKSRFTVSRDNAMNTVYLQMNSLRVEDTAVYYCARDGWWYATSWYFDVWGQGTLVTVSS VL: DIVMTQTPLSLSVSPGEPASISCKASQSINHYLNWFRQKPDGTVKLLIYYISSFHSGVPSRFSGSGSGTDFTLRISRVEADDAGVYYCQQSHTLPYTFGQGT | 4.4 nM |  | 
H3A02B4L1AL1 (antibody, V domains shown, Caninized IgG) VH: EVQLVESGGDLARPGGSLKLSCVVSGFTLTQYGINWVRQAPGKGLQWVTVIWATGATDYNSALKSRFTVSRDNAMNTVYLQMNSLRVEDTAVYYCARDGWWYATSWYFDVWGQGTLVTVSS VL: EIVMTQSPASLSLSQEEKVTITCKASQDINHYLNWYQQKPGQAPKLLIYYTSRLHSGVPSRFSGSGSGTDFSFTISSLEPEDVAVYYCQQGNMFPYTFGGGT | 1.56 nM | 2 nM | 
H3AQC23L6A (antibody, V domains shown) VH: EVQLVESGGDLARPGGSLKLSCVVSGFTLTQYGINWVRQAPGKGLQWVTVIWATGATDYNSALKSRFTVSRDNAMNTVYLQMNSLRVEDTAVYYCARDGWWYATSWYFDVWGQGTLVTVSS VL: DIVMTQTPLSLSVSPGEPASISCKASQDINHYLNWFRQKPDGTVKLLIYYVTSLHAGVPSRFSGSGSGTDFTLRISRVEADDAGVYYCQQGDHFPRTFGQGT | 16.9 nM |  | 
182m75 (antibody, V domains shown, 51 except in CDR2 (TSSLHV); 51 (CDR2 Pos. 1-6 = residues 51-56); also called Can-182-m75) VH: EVQLVESGGDLARPGGSLKLSCVVSGFTLTQYGINWVRQAPGKGLQWVTVIWATGATDYNSALKSRFTVSRDNAMNTVYLQMNSLRVEDTAVYYCARDGWWYATSWYFDVWGQGTLVTVSS VL: DIVMTQTPLSLSVSPGEPASISCKASQDINHYLNWFRQKPDGTVKLLIYYTSSLHVGVPSRFSGSGSGTDFTLRISRVEADDAGVYYCQQGDHFPRTFGQGT |  |  | Kd (canine beta-NGF (cNGF) [3]): 2.03 nM; Kd (canine beta-NGF (cNGF) [4]): 2.03 nM; koff (canine beta-NGF (cNGF) [4]): 8.99e-07 s⁻¹; kon (canine beta-NGF (cNGF) [4]): 444 M⁻¹ s⁻¹
